Data reported in patent US20040043378A1.

Target: lysine-acetylated histone H4 peptide SGRGKGG-AcK-GLGK (Lys8 acetylated)
Assay: 15N-HSQC backbone amide chemical shift change upon binding to the AcK peptide

“bromodomain of P/CAF (residues 719-832 of SEQ ID NO:2) (from UniProt Q92831 719-832)” was tested. Which maximum weighted chemical shift difference (Tyr809) did it give?
The maximum weighted chemical shift difference (Tyr809) was 0.16 ppm.
